Results taken from article PMC5861428.
pKd: −log10 of the molar value.

Assays:
[1] = tested on: Fab clone 13 (synthetic), PDB:6B14_1+PDB:6B3K_2; assay: filter binding
[2] = tested on: Fab clone 5 (synthetic), PDB:6B14_1+PDB:6B3K_2; assay: filter binding
[3] = tested on: Fab clone 15 (synthetic), PDB:6B14_1+PDB:6B3K_2; assay: filter binding
[4] = tested on: Fab clone 1 (synthetic), PDB:6B14_1+PDB:6B3K_2; assay: filter binding
[5] = tested on: Fab clone 10 (Fab 10) (synthetic), PDB:6B14_1+PDB:6B3K_2; assay: filter binding
[6] = tested on: Fab clone 9 (synthetic), PDB:6B14_1+PDB:6B3K_2; assay: filter binding
[7] = tested on: Fab clone 17 (synthetic), PDB:6B14_1+PDB:6B3K_2; assay: filter binding
[8] = tested on: Fab clone 14 (synthetic), PDB:6B14_1+PDB:6B3K_2; assay: filter binding
[9] = tested on: Fab clone 3 (Fab 3) (synthetic), PDB:6B14_1+PDB:6B3K_2; assay: filter binding
[10] = tested on: Fab BL3-6 S97N (synthetic), PDB:6B14_1+PDB:6B14_2; assay: filter binding
[11] = tested on: Fab clone 12 (synthetic), PDB:6B14_1+PDB:6B3K_2; assay: filter binding
[12] = tested on: Fab clone 11 (synthetic), PDB:6B14_1+PDB:6B3K_2; assay: filter binding
[13] = tested on: Fab clone 6 (synthetic), PDB:6B14_1+PDB:6B3K_2; assay: filter binding
[14] = tested on: Fab clone 4 (synthetic), PDB:6B14_1+PDB:6B3K_2; assay: filter binding
[15] = tested on: Fab clone 18 (synthetic), PDB:6B14_1+PDB:6B3K_2; assay: filter binding
[16] = tested on: Fab clone 2 (synthetic), PDB:6B14_1+PDB:6B3K_2; assay: filter binding
[17] = tested on: Fab BL3-6 (synthetic (humanized Fab4D5 framework phage library)), PDB:6B14_1+PDB:6B3K_2; assay: filter binding
[18] = tested on: Fab BL3-6 (synthetic (humanized Fab4D5 framework phage library)), PDB:6B14_1+PDB:6B3K_2; assay: hydroxyl-radical footprinting

Row | Sequence | pKd [1] | pKd [2] | pKd [3] | pKd [4] | pKd [5] | pKd [6] | pKd [7] | pKd [8] | pKd [9] | pKd [10] | pKd [11] | pKd [12] | pKd [13] | pKd [14] | pKd [15] | pKd [16] | pKd [17] | pKd [18]
1 | GGCGACCAUGGAAACACCAUGGUCGC [WT-RNA HP (WT BL3-6 HP)] | 7.60 | 7.55 | 7.77 | 7.54 | 7.55 | 7.17 | 7.68 | 7.24 | 7.60 | 7.89 | 7.77 | 7.89 | 7.28 | 7.55 | 7.66 | – | – | –
2 | GUCCAGUAGGAACACUAUACUACUGGAUAAUCAAAGACAAAUCUGCCCGAAGGGCUUGAGAACAUCGAAACACGAUGCAGAGGUGGCAGCCUCCGGUGGGUUAAAACCCAACGUUCUCAACAAUAGUGA [WT-BLP] | 7.44 | 7.70 | 7.47 | 7.59 | 7.52 | 7.18 | 7.38 | 7.35 | 7.55 | 8.30 | 7.43 | 7.43 | 7.27 | 7.54 | 7.29 | 7.30 | 6.92 | –
3 | UGCGACCAUGGUGAGACCCGCCAUGGUCGC [N9RNA1 HP (AM HP)] | 7.96 | 8.10 | 8.00 | 7.96 | 8.05 | 7.89 | 8.10 | – | 8.05 | 8.05 | 8.15 | 8.05 | 8.15 | 7.96 | 8.05 | 8.00 | – | 7.52
